From US20210198647

What was measured:
[1] = system: NlnA#1, NSC 374121, L-histidyl-L-tyrosine
[2] = system: NlnA#2, NSC 523374, D,L-histidyl-D,L-histidine

Substance | Emax, QFS (25 µM) hydrolysis [1] | Emax, QFS (25 µM) hydrolysis [2]
recombinant human neurolysin (R & D systems, product number 3814-ZN) | 203.5% (95% confidence intervals 193.7 to 213.4%) | 214.3% (95% confidence intervals 205.7 to 222.9%)
mouse brain-purified neurolysin | 190% (95% confidence intervals 169.2 to 210.7%) | 258% (95% confidence intervals 232.7 to 283.8%)
